The target in series [1] is CD31shed (residual cell-bound human CD31 after shedding between the 5th and 6th extracellular Ig-like domains) (human) (UniProt P16284). The series can be described thus: 10-colour flow cytometry on human peripheral blood leukocytes of a healthy donor, WM59-PE against PECAM 1.2-FITC; gate CD20 = B lymphocytes.
Series [2] has the same target. The series can be described thus: 10-colour flow cytometry on human peripheral blood leukocytes of a healthy donor, WM59-PE against PECAM 1.2-FITC; gate 1 (CD4) = activated CD4+ T cells.
Series [3] shares this target. Briefly: 10-colour flow cytometry on human peripheral blood leukocytes of a healthy donor, WM59-PE against PECAM 1.2-FITC; gate 3 (CD8) = naive CD8+ T cells.
Series [4] shares this target. Briefly: 10-colour flow cytometry on human peripheral blood leukocytes of a healthy donor, WM59-PE against PECAM 1.2-FITC; gate 3 (CD4) = naive CD4+ T cells.
Series [5] shares this target. Briefly: 10-colour flow cytometry on human peripheral blood leukocytes of a healthy donor, WM59-PE against PECAM 1.2-FITC; gate 2 (CD8) = memory CD8+ T cells.
The target in another series is the 23-mer peptide. The series can be described thus: BIAcore; format not described.
Series [6] concerns the target human CD31 (PECAM-1) (human) (UniProt P16284). The series can be described thus: 10-colour flow cytometry on human peripheral blood leukocytes of a healthy donor, WM59-PE against PECAM 1.2-FITC; gate CD20 = B lymphocytes.
The target is the same in series [7]. Briefly: 10-colour flow cytometry on human peripheral blood leukocytes of a healthy donor, WM59-PE against PECAM 1.2-FITC; gate 1 (CD4) = activated CD4+ T cells.
For series [8] the target is unchanged. The series can be described thus: 10-colour flow cytometry on human peripheral blood leukocytes of a healthy donor, WM59-PE against PECAM 1.2-FITC; gate 3 (CD8) = naive CD8+ T cells.
The target is the same in series [9]. Briefly: 10-colour flow cytometry on human peripheral blood leukocytes of a healthy donor, WM59-PE against PECAM 1.2-FITC; gate 3 (CD4) = naive CD4+ T cells.
Series [10] shares this target. The series can be described thus: 10-colour flow cytometry on human peripheral blood leukocytes of a healthy donor, WM59-PE against PECAM 1.2-FITC; gate 2 (CD8) = memory CD8+ T cells.
Series [11] deals with the molecule itself. Briefly: SPR (BIAcore 2000), peptide coated on CM5 chip, same peptide injected at 12.5-100 µM. The method, then:
Plasmon Surface Resonance. Homophilic binding association and dissociation constants were calculated by surface plasmon resonance (BIAcore® 2000, GE). […] Dissociation was monitored for 300 seconds. Association (kon) and dissociation (koff) constants were calculated using the BIAevaluation 3.0 Software (GE).

Take “anti-CD31 monoclonal antibody clone PECAM 1.2”: the percent of gated cells in the lower right quadrant (dom1-/dom6+) in series [1] worked out at 12; in series [2], 90.6; in series [3], 23.5; in series [4] it was 28.1; in series [5] it was 29.7.
Molecule “alternatively spliced soluble CD31 (receptor)” gave a dissociation constant Kd with the 23-mer peptide of 17 µM.
As to “anti-CD31 monoclonal antibody clone WM-59”, the percent of gated cells in the upper right quadrant (dom1+/dom6+) in series [6] came out at 88; in series [7], 9.4; in series [8], 76.5; in series [9], 71.9; in series [10] it was 70.3.

B1: mouse CD31 peptide 551-574 (peptide)
peptide: SSMRTSPRSSTLAVRVFLAPWKK
notes: Synthetic peptide, juxta-membrane 23 amino acids of the mouse CD31 ectodomain; In the SPR assay it was both coated on the CM5 chip and injected as analyte
In series [11], B1 yielded a Kd of 17.8 µM, a koff of 0.00158 s⁻¹ and a kon of 134 M⁻¹ s⁻¹.
